Earlier results as cited in article PMC3985519.

Molecular target: von Willebrand factor (Homo sapiens) (UniProt P04275)

Kd: 0.5 nM
Substance: Factor VIII (from UniProt P00451)
